Target: muscarinic acetylcholine receptor type 1 (M1R) (human) (UniProt P11229)
UniProt P11229, sequence (P11229 whole entry): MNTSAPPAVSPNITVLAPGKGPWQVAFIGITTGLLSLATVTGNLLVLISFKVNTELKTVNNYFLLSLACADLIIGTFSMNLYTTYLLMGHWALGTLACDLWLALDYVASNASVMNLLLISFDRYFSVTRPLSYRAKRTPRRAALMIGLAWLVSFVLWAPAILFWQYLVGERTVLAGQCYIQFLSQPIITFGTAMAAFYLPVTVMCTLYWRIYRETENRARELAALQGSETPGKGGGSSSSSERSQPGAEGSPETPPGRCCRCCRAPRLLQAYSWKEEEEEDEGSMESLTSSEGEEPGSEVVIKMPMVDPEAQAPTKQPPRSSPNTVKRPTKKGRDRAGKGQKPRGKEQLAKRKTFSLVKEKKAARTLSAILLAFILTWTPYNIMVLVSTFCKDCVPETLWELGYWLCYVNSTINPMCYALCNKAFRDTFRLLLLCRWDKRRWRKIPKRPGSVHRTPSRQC

Q: Which M1R-induced [3H]GDP release from Gi3 Δ5 (Fig. 3c) (% GDP release) does the source give for “Gi3_Δ5 (Gαi3 with the last five residues truncated, with added Gβγ) (from UniProt P08754 1-349; P62873 1-340; P59768 1-71) (complex)” here?
A: 20
